The target of data set [1] is T1, EV-A71 VP1 (capsid protein) (Enterovirus A71) (UniProt Q66478).
T1 sequence: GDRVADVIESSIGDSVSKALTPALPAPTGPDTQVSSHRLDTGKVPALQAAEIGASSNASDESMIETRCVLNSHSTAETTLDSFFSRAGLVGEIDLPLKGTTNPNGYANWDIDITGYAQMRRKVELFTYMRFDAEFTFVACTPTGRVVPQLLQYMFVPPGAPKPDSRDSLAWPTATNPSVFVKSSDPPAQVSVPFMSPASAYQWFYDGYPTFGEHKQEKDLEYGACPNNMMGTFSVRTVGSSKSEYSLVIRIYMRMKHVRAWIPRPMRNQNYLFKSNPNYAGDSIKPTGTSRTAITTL
As to the kind of experiment: ELISA. Particulars: 5 mM Mg2+; VP1 coated at 200 ng/mL; unit given as nm; given with U (uracil) mixed with t in a DNA aptamer; U may stand for T; 1x PBS, 5 mM MgCl2, 1% BSA, 1 ug/mL tRNA, 0.02% Tween-20, room temperature, 1 h; pH not stated. (In general: In an ELISA, binding on a coated surface is turned into a signal by an enzyme label.)

The next data set has as its target Bovine serum albumin (Bos taurus (Bovine), UniProt P02769 25-607). The data set is described as follows: ELONA; PBS, 5 mM MgCl2, 1% BSA, 1 ug/mL tRNA, 0.02% Tween-20, RT; VP1 coated on plate. The conditions noted are these: label: 5'-biotin.

Bovine serum albumin, sequence (P02769 25-607): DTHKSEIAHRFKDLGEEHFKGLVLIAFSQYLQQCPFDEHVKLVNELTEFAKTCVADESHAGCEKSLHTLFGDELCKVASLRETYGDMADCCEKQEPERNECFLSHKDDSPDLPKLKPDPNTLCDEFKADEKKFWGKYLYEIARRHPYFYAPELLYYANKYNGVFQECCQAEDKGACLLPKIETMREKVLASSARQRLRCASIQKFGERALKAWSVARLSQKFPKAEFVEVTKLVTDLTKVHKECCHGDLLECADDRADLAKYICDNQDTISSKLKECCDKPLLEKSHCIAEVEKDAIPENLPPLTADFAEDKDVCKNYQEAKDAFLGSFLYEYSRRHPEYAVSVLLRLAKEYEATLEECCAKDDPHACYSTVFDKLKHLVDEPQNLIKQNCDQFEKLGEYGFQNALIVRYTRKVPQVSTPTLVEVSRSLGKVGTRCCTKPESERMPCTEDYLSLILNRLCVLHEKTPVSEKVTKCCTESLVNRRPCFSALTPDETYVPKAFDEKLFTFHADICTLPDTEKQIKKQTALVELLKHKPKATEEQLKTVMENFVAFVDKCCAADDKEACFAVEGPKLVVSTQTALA

Usually Kd stands for a measure of binding affinity in units of concentration. Low values mean higher affinity, high ones lower affinity. In data set [1], “ACTAAGCCACCGTGTCCACCCUCGCCGAGUUUUCGUAACUAUAUCUUGUGGUUCCUAUUGCUGCGUCACUCUGGAU [V11]” came in with a Kd of 4.28 nM. Same read-out and setting: with “ACTAAGCCACCGTGTCCAUCAAUGGUGUGUGCAUUCGUGUGUUGUGUUGUUUGUUGUUUGCUGCGUCACUCUGGAU [V7]” the figure was 32.7 nM; with “ACTAAGCCACCGTGTCCAUUCGAUUCGAUCUAAUUUGGUUCUUUCCUCACUUUUCAGUGCUGCGUCACUCUGGAU [V21]”, 4.55 nM.

B1: V11 (ssDNA)
DNA: ACTAAGCCACCGTGTCCACCCTCGCCGAGTTTTCGTAACTATATCTTGTGGTTCCTATTGCTGCGTCACTCTGGAT
modifications: dU at positions 22,30,31,32,33,36,40,42,44,46,47,49,52,53,56,58,59,62,66,70,72,76 (printed 'U, uracil'; every T 3' of the 18-nt primer; whether the dU carries a C5 group is not stated)
For B1, the binding result in the data set with Bovine serum albumin was “no binding”.
